According to doi:10.1101/2020.09.01.277368 (bioRxiv, 2020):
Several values for one entry are separate records, joined by “and”; a condition that tells them apart may be missing. Identical values can stand only once.

Biological target: the molecule itself
Assay: AUC; sedimentation velocity (SV-AUC); MetA at 10, 20 and 30 µM in 20 mM Tris-Cl pH 7.5, 150 mM NaCl; 40,000 rpm; absorbance at 280 nm; SEDFIT continuous c(s) distribution; monomer, dimer and tetramer peaks, populations unchanged at the three concentrations

B1: homoserine acetyl transferase MetA (Rv3341) of Mycobacterium tuberculosis, recombinant histidine-tagged (enzyme)
chain: MTISDVPTQTLPAEGEIGLIDVGSLQLESGAVIDDVCIAVQRWGKLSPARDNVVVVLHALTGDSHITGPAGPGHPTPGWWDGVAGPGAPIDTTRWCAVATNVLGGCRGSTGPSSLARDGKPWGSRFPLISIRDQVQADVAALAALGITEVAAVVGGSMGGARALEWVVGYPDRVRAGLLLAVGARATADQIGTQTTQIAAIKADPDWQSGDYHETGRAPDAGLRLARRFAHLTYRGEIELDTRFANHNQGNEDPTAGGRYAVQSYLEHQGDKLLSRFDAGSYVILTEALNSHDVGRGRGGVSAALRACPVPVVVGGITSDRLYPLRLQQELADLLPGCAGLRVVESVYGHDGFLVETEAVGELIRQTLGLADREGACRR
notes: also called HSAT; (His)6-Rv3341
stoichiometry N: 2 and 4
